Reference: patent publication US12246067 (BIONTECH US, dated 2025)

Columns and labels:
HLA-A03.01 = target: T1, HLA-A03.01 (human); experiment: peptide-HLA class I complex stability, method not described
T1 construct: The assay format and the HLA construct are not described

HLA-A11.01 = target: T2, HLA-A11.01 (human); experiment: as above
T2 construct: The assay format and the HLA construct are not described

HLA-A02:01 [1] = target: T3, HLA-A02:01 (human); experiment: measured peptide-HLA complex stability; method not detailed
T3 construct: only the allele is given; also called HLA-A02:01 allele protein

HLA-A02:01 [2] = target: T3, HLA-A02:01; experiment: measured peptide-HLA affinity; method not detailed

Binder	Measured stability (HLA-A03.01) [h]	Measured stability (HLA-A11.01) [h]	Measured stability (HLA-A02:01 [1]) [h]	Measured Affinity (HLA-A02:01 [2]) [nM]
VVGACGVGK [KRAS, G12C peptide VVGACGVGK]	5	10		
VVGADGVGK [KRAS, G12D peptide VVGADGVGK]		3.4		
VVVGADGVGK [KRAS, G12D peptide VVVGADGVGK]	2.3	13		
VVVGAVGVGK [KRAS, G12V peptide VVVGAVGVGK]	6.7	24.3		
FLVVVGACGV [KRAS G12C affinity-enhanced peptide FLVVVGACGV]			7.4	4.2
FMVVVGACGI [KRAS G12C affinity-enhanced peptide FMVVVGACGI]			1	17
FLVVVGACGL [KRAS G12C affinity-enhanced peptide FLVVVGACGL]			1.4	69.4
FMVVVGACGL [KRAS G12C affinity-enhanced peptide FMVVVGACGL]			0.9	85.3
FLVVVGACGI [KRAS G12C affinity-enhanced peptide FLVVVGACGI]			1.4	27.8
YLVVVGACGV [KRAS G12C affinity-enhanced peptide YLVVVGACGV]			9.3	3.9
KMVVVGACGV [KRAS G12C affinity-enhanced peptide KMVVVGACGV]			3.8	11.9
MMVVVGACGV [KRAS G12C affinity-enhanced peptide MMVVVGACGV]			2.1	18.9
MLVVVGACGV [KRAS G12C affinity-enhanced peptide MLVVVGACGV]			1.7	18.2
FMVVVGACGV [KRAS G12C affinity-enhanced peptide FMVVVGACGV]			5.4	1.1
YMVVVGACGV [KRAS G12C affinity-enhanced peptide YMVVVGACGV]			6.4	7
